Measured values reported in patent publication US20120271036A1.
Read-outs that look alike come from different tables or passages of the source.

Tests used:
[1] = target: Cul5(N), human Cullin5 residues 2-384 (V341R, L345D) after removal of GST (human) (UniProt Q93034); experiment: ITC, 30 C
[2] = target: Cul5(N), human Cullin5 residues 2-384 (V341R, L345D) after removal of GST (human) (UniProt Q93034)
[3] = target: Cul5(N), human Cullin5 residues 2-384 (V341R, L345D) after removal of GST (human) (UniProt Q93034); remark: listed apart in the source
[4] = target: Cul5(N), human Cullin5 residues 2-384 (V341R, L345D) after removal of GST (human) (UniProt Q93034); experiment: ITC, one set of sites fit of one isotherm with the actual BCvifVF concentration
[5] = target: Cul5(N), human Cullin5 residues 2-384 (V341R, L345D) after removal of GST (human) (UniProt Q93034); experiment: ITC; one set of sites model

Cul5(N), human Cullin5 residues 2-384 (V341R, L345D) after removal of GST (human), sequence (Q93034 other isoform, or with tags, fused parts or gaps V341R L345D V341R L345D): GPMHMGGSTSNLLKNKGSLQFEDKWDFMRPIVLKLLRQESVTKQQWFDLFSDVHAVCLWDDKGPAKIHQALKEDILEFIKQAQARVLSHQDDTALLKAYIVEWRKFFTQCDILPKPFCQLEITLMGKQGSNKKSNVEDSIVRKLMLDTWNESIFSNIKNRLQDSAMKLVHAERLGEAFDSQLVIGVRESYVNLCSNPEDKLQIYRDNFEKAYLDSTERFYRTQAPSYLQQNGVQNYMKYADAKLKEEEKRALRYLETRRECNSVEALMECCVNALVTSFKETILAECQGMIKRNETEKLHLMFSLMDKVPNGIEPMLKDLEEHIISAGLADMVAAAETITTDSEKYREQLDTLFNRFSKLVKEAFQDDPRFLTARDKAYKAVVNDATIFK

Substance | ΔH [1] | N [2] | ΔS [2] | n (ITC binding stoichiometry, one set of sites model) [3] | n (ITC binding stoichiometry, one set of sites model) [4] | n (ITC binding stoichiometry) [5]
BCvif95-192: EloB (1-118) / EloC (17-112) / Vif (95-192) (from UniProt P69723 95-192) | -5.24 kcal/mol | 1.01 | 11.1 |  |  | 
BCvifVF: EloB (1-118) / EloC (17-112) / vif (95-192) (A123V, L124F) (from UniProt P69723 95-192) |  |  |  | 0.901 | 0.451 | 0.43
BCvifSS: EloB (1-118) / EloC (17-112) / vif (95-192) (A123S, L124S) (from UniProt P69723 95-192) | -7.28 kcal/mol |  |  |  |  | 1.01
